Results: patent US20250376532A1

Target: rDR5-IgG4-Fc (UniProt O14763)
Experiment: BLI

Kd: 0.102 nM
Substance: AMG655
